In PMC6708486 (Nature chemistry, 2019):
“And” between values parts separate entries of the source, which are not always exact repeats. Identical values can stand only once.

Assays:
AUC = biological target: the molecule itself; experiment: AUC
crystal structure = biological target: the molecule itself; experiment: crystal structure

Protein	stoichiometry N (AUC)	binding result (crystal structure)
LepI (enzyme) ETVAAIKTLIQQLAQSTDQFGRAEINDALRELQYSLETPFDTVMRMSLDTCQVAVARIGSDLGLFKHLSQCASPQSAEELADHLGCGRELMSRLLRYMASVRMVQQTDDIKYISSNITQTLAVPGLEAGMRHAFENLWPVLMALPDFLAERKYPDIVDAKDTAFQKAFNTDQDCFHWLATQPTRIANFKVLLTDERTPNFLSTFPLEKELGSWSAEPEKALFVDIGGGMGHACIRLREKYPNQPGRVILQDLPPVLQAAQATLPLSGIESMPHNFHTPQPVQGAKFYFLRLILRDFPDHQALEILQNIVPAMDAESRIVIDDGVPPEKGARWAETGTDICIMSALGSKERTQRQWEELAAKAGLQLQALYQYTWPVVNAAMVFSLQ	2 and 4	–
LepI (C52A) (enzyme) ETVAAIKTLIQQLAQSTDQFGRAEINDALRELQYSLETPFDTVMRMSLDTAQVAVARIGSDLGLFKHLSQCASPQSAEELADHLGCGRELMSRLLRYMASVRMVQQTDDIKYISSNITQTLAVPGLEAGMRHAFENLWPVLMALPDFLAERKYPDIVDAKDTAFQKAFNTDQDCFHWLATQPTRIANFKVLLTDERTPNFLSTFPLEKELGSWSAEPEKALFVDIGGGMGHACIRLREKYPNQPGRVILQDLPPVLQAAQATLPLSGIESMPHNFHTPQPVQGAKFYFLRLILRDFPDHQALEILQNIVPAMDAESRIVIDDGVPPEKGARWAETGTDICIMSALGSKERTQRQWEELAAKAGLQLQALYQYTWPVVNAAMVFSLQ	–	binds
